Test results from patent US20190092852A1 (Genentech, published 2019).
Several values for one entry are separate records, joined by “and”; a condition that tells them apart may be missing. Equal values may be shown once.

T1: cyno IL-33 (construct not stated) (cynomolgus monkey, UniProt A0A2K5W3I1 112-269)
T1 construct: also called cynomolgus IL-33; cyno IL-33 (Genentech)
T1 sequence: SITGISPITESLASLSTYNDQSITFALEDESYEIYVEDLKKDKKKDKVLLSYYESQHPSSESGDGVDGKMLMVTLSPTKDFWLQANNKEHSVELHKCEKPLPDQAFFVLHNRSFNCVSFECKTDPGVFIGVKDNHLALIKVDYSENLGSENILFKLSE

T2: human IL-33 (Genentech, huIL33.his) (human, UniProt O95760 112-270)
T2 sequence (looked up): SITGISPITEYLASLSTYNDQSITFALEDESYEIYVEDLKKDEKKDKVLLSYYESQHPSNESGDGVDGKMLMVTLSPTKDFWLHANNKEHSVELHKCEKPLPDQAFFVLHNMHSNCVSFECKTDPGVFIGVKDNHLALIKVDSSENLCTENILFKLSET

T3: cyno IL-33 (cell-based blocking assay of Example 2) (cynomolgus monkey, UniProt A0A2K5W3I1 95-269)
T3 sequence: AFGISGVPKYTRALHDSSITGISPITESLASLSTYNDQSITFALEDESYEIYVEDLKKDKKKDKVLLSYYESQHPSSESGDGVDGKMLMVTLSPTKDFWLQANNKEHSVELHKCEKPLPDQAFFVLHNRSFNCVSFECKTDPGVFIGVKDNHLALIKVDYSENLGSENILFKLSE

T4: human IL-33 (cell-based blocking assay of Example 2) (human, UniProt O95760 112-270)
T4 sequence (looked up): T2 sequence (looked up)

B1: 10C12 (antibody, V domains shown)
VH: DVNLVESGGGSVKPGGSLKLSCVASGFTFSSFSMSWVRQTPEKRLEWVATISGGKTFTDYVDSVKGRFTISRDDAKNTLYLQMSSLESEDTAMYYCTRANYGNWFFEVWGAGTTVAVSS
VL: DIVLTQSPGFLVVSLGQRATISCRASESVAKYGLSLLNWFQQKPGQPPKLLIFAASNRGSGVPARFSGSGSGTDFSLNIHPMEEDDTAMYFCQQSKEVPFTFGSGTKLEIK
notes: Murine hybridoma clone from IL33 KO mouse
B2: 2B6 (antibody, V domains shown)
VH: EVLLQQSGPELVKPGASVKISCNASGYTFSDYNMNWVKQSHGKSLESIGDINPKNGDTFYNQNFKDKATLTIDKSSSTVYMELRSLTSEDTAMYYCARHYYYGSSYGGFVYWGQGTLVTVAA
VL: DIQMNQSPSSLSASLGDTITITCHASQNINVWLSWYQQKAGNNPKLLIYAASKLHTGVPSRFTGSGSGTLFTLTISSLQPEDIATYYCQQGQSYPLTFGSGTNLELK
notes: Murine hybridoma clone (Balb/C)
B3: 10H2 (antibody, V domains shown)
VH: EVKLEESGGGLVQPGGSMKLSCVASGFTFSNYWMNWVRQSPEKGLEWMAEITLKFNNYSTHYAESVKGRFSISRDDSKSTVYLQMNNLRAEDTGIYYCARRNYGDWYINVWGAGTTVTVSS
VL: DIVLTQSPTSLAVSLGQRATISCRASESVDKFGMSFLNWFQQKPGQPPKLLIFVASSQGSGVPARFSGSGSGTDFSLNIHPVEEDDTAMYFCQQSKDIPYTFGGGTKLEIK
notes: as for B2
B4: 9F6 (antibody, V domains shown)
VH: QVQLQQSGNDLVKPGASVKLSCKASGYTFTSYWINWIKQRPGQGLEWIGRIAPGSGFISYNELFKDKATLTVDTSSSTAYIQLGSLSSEDSAVYFCAREFYYGSFYGGFAYWGQGTLVTVSA
VL: DIQMNQSPSSLSASLGDTITITCHASQNIHVWLSWYQQKPGNIPKLLIYKASTLHTGVPSRFNGSGSGTGFTLTISSLQPEDIATYYCQQGQSSPLTFGAGTKLEVK
notes: as for B2
B5: 6C11 (antibody, V domains shown)
VH: EVKLEESGGGLVQPGGSMKLSCVASGFTFNKFWMNWVRQSPEKGLEWVAEIRLNSINYVKDYAESVKGRFTISRDDSKNSVYLQMNNLRAEDTGIYYCIRRNYGNWFFEIWGAGTTVTVSS
VL: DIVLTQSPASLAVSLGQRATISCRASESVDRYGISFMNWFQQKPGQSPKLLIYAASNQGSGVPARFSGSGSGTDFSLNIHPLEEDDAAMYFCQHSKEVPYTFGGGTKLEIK
notes: as for B2
B6: 101.B11 (antibody, V domains shown)
VH: QVQLVQSGGGLVQPGGSLKLSCAASGFTFSGSAMHWVRQASGKGLEWVGRIRSRNNNYATAYAASVKGRFTISRDDSKRTTYLQMNSLKTEDTAVYYCTRLQQPPFDYWGQGTLVTVSS
VL: DIQMTQSPSSLSASVGDRVTITCRASQGIRNDLDWYQQKPGKAPKRLIYAASSLQSGVPSRFNGSGSGTEFTLTISSLQPEDFATYYCLQHDSYPLTFGGGTKVEIK
notes: Transgenic mouse / phage display
B7: 10C12.38.H6.87Y.58I (antibody, V domains shown)
VH: EVQLVESGGGLVQPGGSLRLSCAASGFTFSSFSMSWVRQAPGKGLEWVATISGGKTFTDYVDSVKGRFTISRDDSKNTLYLQMNSLRAEDTAVYYCTRANYGNWFFEVWGQGTLVTVSS
VL: EIVLTQSPATLSLSPGERATLSCRASESVAKYGLSLLNWFQQKPGQPPRLLIFAASNRGSGIPARFSGSGSGTDFTLTISSLEPEDFAVYYCQQSKEVPFTFGQGTKVEIK
B8: 4G12.FW4 (antibody, V domains shown)
VH: ELQLQESGPGLVKPSETLSLTCTVSGGSIRSSIFYWGWIRQPPGKGLEWIGSIYYSGRTYYNPSLKSRVTISVDTSKNQFSLMLTSVTAADTAVYYCARAGGLYNWNDESFSFYMDVWGQGTTVTVSS
VL: EIVLTQSPGTLSLSPGERATLSCRASQSFSSSYLAWYQQKPGQAPRLLIYGASSRATGIPDRFSGSGSGTDFTLTISRLEPEDFAVYYCQQYDRSPLTFGGGTKVEIK
notes: Derivative of 4G12

The binders below were run against T1, cyno IL-33 (construct not stated) (assay: SPR Biacore).

Binder	Kd [pM]
B1	70
B2	330
B3	90
B4	910
B5	790
B6	783
B7	37
B8	70

The binders below were run against T2, human IL-33 (Genentech, huIL33.his) (assay: SPR Biacore).

Binder	Kd [pM]
B1	≤ 7
B2	30
B3	60
B4	70
B5	60
B6	527
B7	15
B8	38

Each binder was assayed against T3, cyno IL-33 (cell-based blocking assay …) (assay: cell-based or functional assay).

Binder	IC50 (HEK-BLUE SEAP reporter, IL-33 blocking) [pM]	IC90 (HEK-BLUE SEAP reporter, IL-33 blocking)
B1	142	1290 pM and 0.193 µg/mL
B3	17.4	271 pM and 0.0407 µg/mL
B5	> 10000	> 10000 pM and > 1.5 µg/mL
B7	181	1220 pM and 0.183 µg/mL

What follows are binders tested against T4, human IL-33 (cell-based blocking assay …) (assay: cell-based or functional assay).

Binder	IC50 (HEK-BLUE SEAP reporter, IL-33 blocking) [pM]	IC90 (HEK-BLUE SEAP reporter, IL-33 blocking)
B1	3.9	18.2 pM and 0.0027 µg/mL
B3	5.3	31 pM and 0.0047 µg/mL
B5	21.3	120 pM and 0.0181 µg/mL
B7	2	20.5 pM and 0.0031 µg/mL

Molecular target: T3, cyno IL-33 (cell-based blocking assay …)
Assay: cell-based or functional assay
Remark: another data set of the same source

Binder	Cell assay (cy) IC90
B1	0.193 µg/mL and 1.27 nM
B2	0.526 µg/mL and 3.47 nM
B3	0.041 µg/mL and 0.27 nM
B4	> 1.5 µg/mL and > 9.9 nM
B5	> 1.5 µg/mL and > 9.9 nM
B7	0.185 µg/mL and 1.22 nM
B8	0.034 µg/mL and 0.224 nM

Molecular target: T4, human IL-33 (cell-based blocking assay …)
Assay: cell-based or functional assay
Remark: another data set of the same source

Binder	Cell assay (hu) IC90
B1	0.002 µg/mL and 0.013 nM
B2	0.02 µg/mL and 0.13 nM
B3	0.003 µg/mL and 0.02 nM
B4	0.011 µg/mL and 0.73 nM
B5	0.021 µg/mL and 0.14 nM
B6	0.3 µg/mL
B7	0.004 µg/mL and 0.026 nM
B8	0.17 µg/mL and 1.12 nM
